The data set is described as follows: self-splicing fitness, log relative to wild type (ln ratio); higher = more splicing; Tetrahymena group I intron in knt gene, E. coli kanamycin selection, DiMSum; sequences stand for … in CUCUCU…GGAGGGAAAAGUUAUCAGGCAUGCACCUGGUAGCUAGUCUUUAAACCAAUAGAUUGCAUCGGUUUAAAAGGCAAGACCGUCAAAUUGCGGGAAAGGGGUCAACAGCCGUUCAGUACCAAGUCUCAGGGGAAACUUUGAGAUGGCCUUGCAAAGGGUAUGGUAAUAAGCUGACGGACAUGGUCCUAACCACGCAGCCAAGUCCUAAGUCAACAGAUCUUCUGUUGAUAUGGAUGCAGUUCACAGACUAAAUGUCGGUCGGGGAAGAUGUAUUCUUCUCAUAAGAUAUAGUCGGACCUCUCCUUAAUGGGAGCUAGCGGAUGAAGUGAUGCAACACUGGAGCCGCUGGGAACUAAUUUGUAUGCGAAAGUAUAUUGAUUAGUUUUGGAGUACUCGUGGUCG
Put shortly: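 DiMSum derived fitness as the error-weighted combination of fold changes across replicates, kanamycin versus no kanamycin, normalised to wild type. E. coli BL21(DE3) held the library, which randomised all eight P1ex-region intron nucleotides within the knt kanamycin-resistance gene on pET-22b(+). Six replicate transformations grew overnight at 37°C or 30°C on LB agar with or without 25 μg/mL kanamycin, also containing 100 μg/mL carbenicillin, 50 μM IPTG and 0.2% rhamnose, and pooled colonies were amplicon-sequenced on an Illumina HiSeq 2500.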

± gives the uncertainty stated by the source.

For the sequence AACUAGCAAUAUUACGGGUG, the “self-splicing fitness (ln)” value was -0.377 ± 0.049 (30 °C) and -0.0736 ± 0.07 (37 °C).

Regarding GUCUAGCAAUAUUACGUCAC, the “self-splicing fitness (ln)” value reads like this: (30 °C) -2.9 ± 0.24; (37 °C) -3.04 ± 0.43.

In the case of CCGCAGCAAUAUUACGAGGA, the “self-splicing fitness (ln)” value by setting is: (30 °C) -3.51 ± 0.19; (37 °C) -1.79 ± 0.13.

Turning to CCCCAGCAAUAUUACGCCCC, the “self-splicing fitness (ln)” value (30 °C) was -2.98 ± 0.38. As to CACCAGCAAUAUUACGGUAU, the “self-splicing fitness (ln)” value is -2.42 ± 0.072 (30 °C) and -1.03 ± 0.067 (37 °C). As to AGAAAGCAAUAUUACGAACC, the “self-splicing fitness (ln)” value is -1.29 ± 0.17 (30 °C) and -0.276 ± 0.13 (37 °C). In the case of GAAGAGCAAUAUUACGGCAU, the “self-splicing fitness (ln)” value by setting is: (30 °C) -1.96 ± 0.12; (37 °C) -1.99 ± 0.17.

Consider ACUAAGCAAUAUUACGACUA, for which the “self-splicing fitness (ln)” value was -1.52 ± 0.14 (30 °C) and -0.721 ± 0.14 (37 °C). In the same order, the values of GCUGAGCAAUAUUACGUUUU are -4.08 ± 0.26 and -3.21 ± 0.22. For GAUGAGCAAUAUUACGGGCG the same measures were -3.36 ± 0.39 and -1.45 ± 0.26. As to UCUGAGCAAUAUUACGUCAA, the “self-splicing fitness (ln)” value runs as follows: (30 °C) -2.53 ± 0.24; (37 °C) -2.22 ± 0.27. For the sequence AACCAGCAAUAUUACGCAGG, the “self-splicing fitness (ln)” value (30 °C) was -4.46 ± 0.2 and the “self-splicing fitness (ln)” value (37 °C) is -2.28 ± 0.14. For the sequence UUUAAGCAAUAUUACGAAUU, the “self-splicing fitness (ln)” value by setting is: (30 °C) -1.6 ± 0.17; (37 °C) -1.58 ± 0.2. Turning to UGUGAGCAAUAUUACGACGC, the “self-splicing fitness (ln)” value is -2.98 ± 0.33 (30 °C) and -2.67 ± 0.38 (37 °C).

In the case of AUUCAGCAAUAUUACGUUGG, the “self-splicing fitness (ln)” value (30 °C) is -2.45 ± 0.12 and the “self-splicing fitness (ln)” value (37 °C) was -1.94 ± 0.13. Consider AGAGAGCAAUAUUACGGAAC, for which the “self-splicing fitness (ln)” value is, setting by setting: (30 °C) -2.74 ± 0.38; (37 °C) -1.83 ± 0.4. Turning to GUCUAGCAAUAUUACGCGUU, the “self-splicing fitness (ln)” value (30 °C) is -0.17 ± 0.063 and the “self-splicing fitness (ln)” value (37 °C) was -0.000183 ± 0.069. As to AGCCAGCAAUAUUACGUUGU, the “self-splicing fitness (ln)” value (30 °C) was -3.58 ± 0.21 and the “self-splicing fitness (ln)” value (37 °C) was -2.01 ± 0.15.

For the sequence CACAAGCAAUAUUACGUUCU, the “self-splicing fitness (ln)” value (30 °C) was -2.84 ± 0.12 and the “self-splicing fitness (ln)” value (37 °C) is -2.42 ± 0.12. For CGCAAGCAAUAUUACGGGAG, the “self-splicing fitness (ln)” value runs as follows: (30 °C) -2.73 ± 0.095; (37 °C) -2.19 ± 0.12. Turning to UGAGAGCAAUAUUACGACGG, the “self-splicing fitness (ln)” value is -2.66 ± 0.2 (30 °C) and -2.56 ± 0.25 (37 °C). Turning to CCAAAGCAAUAUUACGCAAU, the “self-splicing fitness (ln)” value is, setting by setting: (30 °C) -4.04 ± 0.24; (37 °C) -1.46 ± 0.18. Take CGUAAGCAAUAUUACGCUUA: the “self-splicing fitness (ln)” value reads like this: (30 °C) -3.67 ± 0.37; (37 °C) -2.91 ± 0.23. For the sequence AAUCAGCAAUAUUACGGUGU, the “self-splicing fitness (ln)” value runs as follows: (30 °C) 0.0362 ± 0.059; (37 °C) 0.393 ± 0.072. With UUGAAGCAAUAUUACGGGAU, the “self-splicing fitness (ln)” value is -2.63 ± 0.14 (30 °C) and -1 ± 0.14 (37 °C). For ACCCAGCAAUAUUACGAGUA the same measures were -2.39 ± 0.12 and -1.02 ± 0.079.

GAUAAGCAAUAUUACGCUGC: the “self-splicing fitness (ln)” value (30 °C) is -2.88 ± 0.23 and the “self-splicing fitness (ln)” value (37 °C) was -3.04 ± 0.3. Turning to GCGAAGCAAUAUUACGGAAU, the “self-splicing fitness (ln)” value is, setting by setting: (30 °C) -3.17 ± 0.13; (37 °C) -1.73 ± 0.13. In the case of GCCUAGCAAUAUUACGAGAA, under “37 °C”, the “self-splicing fitness (ln)” value is -1.26 ± 0.4. GAAGAGCAAUAUUACGAGCG: the “self-splicing fitness (ln)” value was -3.17 ± 0.2 (30 °C) and -0.882 ± 0.17 (37 °C). On to UCUUAGCAAUAUUACGUGGA, for which the “self-splicing fitness (ln)” value was -3.14 ± 0.32 (30 °C) and -3.03 ± 0.37 (37 °C).

Turning to AAAUAGCAAUAUUACGCGAA, the “self-splicing fitness (ln)” value was -1.42 ± 0.14 (30 °C) and -1.59 ± 0.16 (37 °C). As for AGGCAGCAAUAUUACGGCAA, the “self-splicing fitness (ln)” value reads like this: (30 °C) -0.539 ± 0.069; (37 °C) -1.11 ± 0.085. On to CAACAGCAAUAUUACGUAAC, for which the “self-splicing fitness (ln)” value (30 °C) was -3.71 ± 0.23 and the “self-splicing fitness (ln)” value (37 °C) was -2.41 ± 0.24.

As for UCUGAGCAAUAUUACGGGAG, the “self-splicing fitness (ln)” value is, setting by setting: (30 °C) -4.4 ± 0.36; (37 °C) -2.65 ± 0.29. In the same order, the values of CUCUAGCAAUAUUACGCAAC are -3.63 ± 0.2 and -3.59 ± 0.28. CUGAAGCAAUAUUACGAAAA: the “self-splicing fitness (ln)” value (30 °C) was -4.17 ± 0.25 and the “self-splicing fitness (ln)” value (37 °C) was -2.59 ± 0.22. With UCCAAGCAAUAUUACGUCUG, the “self-splicing fitness (ln)” value reads like this: (30 °C) -4 ± 0.23; (37 °C) -3.01 ± 0.2.

Source of the values: the supplement of paper PMC7877785.
